# In the DeepSol protein solubility set:
# Assay: soluble on expression in E. coli; label from the status in PepcDB or PDB records
row,Sequence,soluble on expression in E. coli
1,SASDFEERVVTIPLRDARAEPNHKRADKAMILIREHLAKHFSVDEDAVRLDPSINEAAWARGRANTPSKIRVRAARFEEEGEAIVEAETAE,soluble
2,SATSKLQALWNHPAGPKTIHFWAPTFKWGISIANIADFQKPPENISYLQQIAVTCTGMIWCRCSTIITPKNWNLFSVNVAMAATGIYQLTRKIKYDYVSEAEAAVEIEG,soluble
3,SAVDRDIFGISGPTYLNPVNWNCEHNRRSVAACLVQAVYVLERDRQLGRQSVEALGPPWWEFFHFELIRKLVDDADLSIFGAIFEFNPPSSKESSADNAPRFVIAFRGTITEKETISRDIALDLHLVQNGLHRTSRFTIAMQAVQNVASVFPGSNIWLAGHSLGAGMAILTGRNMVKKGVLLESYLFNPPFVAAPIERISDERVKHGFRIARSVITAGLAIAMKGKGEGSSQRSVAEDSFHILSSWTPYLFVNPGDHICSEYIGYFQHRKNMEDLGAGFIEKLATQNSIGDLFYKALGWESEPLHLLPSADLIVNVSPSPDFKYAHGISQWWQPELNLQCSKYRYSVGA,soluble
4,SCQSEKHPGPELQAAEKWLYFPQLALWRRLGQLSCMSRPALNLRSWLLTILHYLLPFRVLGPHSQVGWRPLSRVSLYKTVPTRLLSRACGRLNQVELPYWLWRPVYSLYIWTFGVNMTEAAVEDLHHYHNLSEFFWHQPIMARSSPLGR,not soluble
5,SDKVINPQVAWAQRSSTTDPERNYVLITVSIADCDAPELTIKPSYIELKAQSKPHVGDENVHHYQLHIDLYKEIIPEKTMHKVANGQHYFLKLYKKDLESEYWPRLTKEKVKYPYIKTDFDKWVDADEQDEVEA,soluble
6,SDSPEQESADDALKRIVDGFQHFRREVFPEQQALFKKLANSQRPRAMFITCADSRIVPELITQSSPGDLFVTRNVGNVVPPYGQMNGGVSTAIEYAVLALGVHHIIVCGHSDCGAMRAVLDPQTLERMPTVKAWLRHAEVARTVVADNCDCGASHDTLGVLTEENVVAQLDHLRTHPSVASRLASGQLFIHGWVYDIESAQIRAYDAKQGRFLPLDGEHPVPMATPAPRYLSS,not soluble
7,SDSSAVITQISKEEARGPLRGKGDQKSAASQKPRSRGILHSLFCCVCRDDGEALPAHSGAPLLVEENGAIPKQTPVQYLLPEAKAQDSDKICVVIDLDETLVHSSFKPVNNADFIIPVEIDGVVHQVYVLKRPHVDEFLQRMGELFECVLFTASLAKYADPVADLLDKWGAFRARLFRESCVFHRGNYVKDLSRLGRDLRRVLILDNSPASYVFHPDNAVPVASWFDNMSDTELHDLLPFFEQLSRVDDVYSVLRQPRPGS,soluble
8,SEAKTLGTVTPRKPVLSVSARKIKDNAADWHNLILKWETLNDAGFTTANNIANLKISLLNKDKIELDSSSPASKENEEKVCLEYNEELEKLCEELQATLDGLTKIQVKMEKLSSTTKGICELENYHYGEESKRPPLFHTWPTTHFYEVSHKLLEMYRKELLLKRTVAKELAHTGDPDLTLSYLSMWLHQPYVESDSRLHLESMLLETGHRAL,soluble
9,SEASFVQTTMALGLSSKKASSRNVAVERKNLITVCRFSVKTLLEKYTAEPIDDSSEEFVNFAAILEQILSHRFKACAPAGPVSWFSSDGQRGFWDYIRLACSKVPNNCVSSIENMENISTARAKGRAWIRVALMEKRMSEYITTALRDTRTTRRFYDSGAIMLRDEATILTGMLIGLSAIDFSFCLKGEVLDGKTPVVIDYTPYLKFTQSYDYLTDEEERHSAESSTSEDNSPEHPYLPLVTDEDSWYSKWHKMEQKFRIVYAQKGYLEELVRLRESQLKDLEAENRRLQLQLEEAAAQNQREKRELEGVILELQEQLTGLIPSDHAPLAQGSKELTTPLVNQWPSLGTLNGAEGASNSKLYRRHSFMSTEPLSAEASLSSDSQRLGEGTRDEEPWGPIGSSEPN,soluble
10,SEDDLTKVLNYTKQRQTEPNPEYYGVAKKKNIIKIHLESFQTFLINKKVNGKEVTPFLNKLSSGKEQFTYFPNFFHQTGQGKTSDSEFTMDNSLYGLPQGSAFSLKGDNTYQSLPAILDQKQGYKSDVMHGDYKTFWNRDQVYKHFGIDKFYDATYYDMSDKNVVNLGLKDKIFFKDSANYQAKMKSPFYSHLITLTNHYPFTLDEKDATIEKSNTGDATVDGYIQTARYLDEALEEYINDLKKKGLYDNSVIMIYGDHYGISENHNNAMEKLLGEKITPAKFTDLNRTGFWIKIPGKSGGINNEYAGQVDVMPTILHLAGIDTKNYLMFGTDLFSKGHNQVVPFRNGDFITKDYKYVNGKIYSNKNNELITTQPADFEKNKKQVEKDLEMSDNVLNGDLFRFYKNPDFKKVNPSKYKYETGPK,soluble
11,SEEDRRLWMEAMDGREPVYNSNKDNQSEGTAQLDSIGFSIIKKCIHAVETRGINEQGLYRIVGVNSRVQKLLSILMDPKTATETETEICAEWEIKTITSALKTYLRMLPGPLMMYQFQRSFIKAAKLENQESRVSEIHSLVHRLPEKNRQMLHLLMNHLAKVADNHKQNLMTVANLGVVFGPTLLRPQEETVAAIMDIKFQNIVIEILIENHEKIFNTVPETPPSNSQLLL,soluble
12,SEEEHPVSHKKSKKKSKKHKEKDQIKKLDIETMEEKEEDLQREETAKLSNASPNPNEGVKEGCTASMEPSSALELPDYLIKYIAIVSYEQRQNYKDDFNAEYDEYRALHARMETVARRFIKLDAQRKRLSPGSKEYQNVHEEVLQEYQKIKQSSPNYHEEKYRCEYLHNKLAHIKRLIGEFDQQQAESWH,soluble
13,SEELDRQKIGGFWREVGVASDQSLVLTAPKRVEGLFLTLSGSNLTVKVAYNSSGSCEIEKIVGSEIDSTGKFAFPGKCSCPVMAGGTRLCTQLGLIVPHAVPCTVPHAVPCTVLCAVPCTVPHAVP,soluble
14,SEITETLCIFIKTPYISEWSLNNAIINAKKYNLNLKVIKIDKIIKNVPERCYLCKKMFFEILTKEKEKYNYDVVVDGTNYDDLFEDRPGLRAKEEFNIGSPFADFKIGKKDILEIAKELNINIPPKET,not soluble
15,SEKVNQTFFLSHGSPTLSIDDSLEARQFFKSWTQKVLPQKPKSILVISAHWDTKFPSVNTVLRNNTIHDFSGFPDPMYKLKYEAPGAIELGKRVKELLMKEGGMKRVDEDTKRGLDHGAWVPLMLMYPEADIPICQLSVQSNQNGSYHYNMGKALASLKDEGVLIIGSGSATHNLRKLDFNITDGSPVPWALEFDHWLRDSLLQGRYGDVNEWEEKAPNAKMAHPWPEHLYPLHVVMGAAGGDAKAEQIHTSWQLGTLSYSSYSFTSSL,soluble
16,SENWDLSSDEMQDGNAPELDVIEEHNPVTRDDENANPEEVVGDTRSPVQNILGKFEGDINKRLHIKRKRMETYIKDSFKDSNVKLEQLWKTNKQERKKINNKFCEQYITTFQKFDMDVQKFNEEQEKSVNNYQKEQQALKLSKCSQSQTLEAIKDMHENYMEGLMNLETNNYNMLFDVDGELRKEMSVFKKDLMKHTLKYSSSFPSSD,not soluble
17,SERTQSSNMETRLDAMKELAKLSADVTFATEFINMDGIIVLTRLVESGTKLLSHYSEMLAFTLTAFLELMDHGIVSWDMVSITFIKQIAGYVSQPMVDVSILQRSLAILESMVLNSQSLYQKIAEEITVGQLISHLQVSNQEIQTYAIALINALFLKAPEDKRQDMANAFAQKHLRSIILNHVIRGNRPIKTEMAHQLYVLQVLTFNLLEERMMTKMDPNDQAQRDIIFELRRIAFDAESDPSNAPGSGTEKRKAMYTKDYKMLGFTNHINPAMDFTQTPPGMLALDNMLYLAKVHQDTYIRIVLENSSREDKHECPFGRSAIELTKMLCEILQVGELPNEGRNDYHPMFFTHDRAFEELFGICIQLLNKTWKEMRATAEDFNKVMQVVREQITRALPSKPNSLDQFKSKLRSLSYSEILRLRQSERMSQDDFQSPPIVELREKIQPEILELIKQQRLNRLCEGSSFRKIGNRRRQERFWYCRLALNHKVLHYGDLDDNPQGEVTFESLQEKIPVADIKAIVTGKDCPHMKEKSALKQNKEVLELAFSILYDPDETLNFIAPNKYEYCIWIDGLSALLGKDMSSELTKSDLDTLLSMEMKLRLLDLENIQIPEAPPPIPKEPSSYDFVYHYG,not soluble
